According to the supplement of paper PMC10724198:
± gives the standard deviation of the averaged measurements.

System: Saccharomyces cerevisiae
Assay: protein stability index of tFT-peptide fusion (C-terminal peptide) (PSI (0-1 scale)); higher = more stable (slower turnover)
Details: genetic background: wild type; temperature: 30 C
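Further: PSI is a weighted mean of sequencing reads over stability bins, variants kept only with over 10 reads, mCherry proximal and sfGFP distal, peptide attached via GGGS linker.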

| Sequence | protein stability index |
| --- | --- |
| AARWHEPLSRER | 0.699 ± 0.029 |
| FPVGVRLNQNET | 0.718 ± 0.017 |
| GSRAECWEVGGV | 0.6742 ± 0.004 |
| PLPSLPPSLAPW | 0.692 ± 0.078 |
| LSLPPLRPPYPP | 0.678 ± 0.091 |
| RLKGSPHPVFLY | 0.753 ± 0.055 |
| KKNRSRKRRNKK | 0.713 ± 0.032 |
| PLRLPVPLPSPP | 0.6571 ± 0.0062 |
| RALALVHRQRVG | 0.648 ± 0.096 |
| GNKAPHTRTIGG | 0.706 ± 0.028 |
| EKNKKDKNIIIG | 0.681 ± 0.04 |
| SFPFSCSSSVTH | 0.72 ± 0.055 |
| EVTAQLCADKEP | 0.564 ± 0.12 |
| ATTVAIVFCRPA | 0.6165 ± 0.0039 |
| KRKTKIEQDQRQ | 0.6704 ± 0.0056 |
| TLWLVSTAVLDC | 0.534 ± 0.036 |
| LVRGRFVVFSGM | 0.626 ± 0.034 |
| GWGLCGRAAGVE | 0.692 ± 0.011 |
| PRGLRIHSRLRG | 0.678 ± 0.01 |
| LPPPSAPFPLPP | 0.743 ± 0.026 |
| PSPLRDLRSTAL | 0.663 ± 0.031 |
| KVREGEARKEST | 0.6826 ± 0.0017 |
| YIGSVCLCVSPV | 0.5999 ± 0.0038 |
| PPPLLPPTLPPR | 0.713 ± 0.047 |
| SVCPQALNLPPH | 0.723 ± 0.043 |

| Sequence | protein stability index |
| --- | --- |
| QKQQRIKQTAKK | 0.703 ± 0.048 |
| FSTIWDRLLLTG | 0.668 ± 0.083 |
| QKKRKKPGKWKS | 0.662 ± 0.022 |
| TNCNSHKLMAAL | 0.679 ± 0.011 |
| VSRHRRLAGMIW | 0.735 ± 0.018 |
| PPPPPPPPPRSS | 0.718 ± 0.021 |
| EKRRRRRQEAER | 0.608 ± 0.03 |
| LSGWIRTLLPET | 0.674 ± 0.047 |
| NLRSSTSKNNKR | 0.659 ± 0.079 |
| SVVGRLVGGFRW | 0.706 ± 0.021 |
| GGGGSVGGGALR | 0.651 ± 0.0088 |
| LFPLHLPSPPPG | 0.7207 ± 0.0018 |
| LVTCPPPVGGPS | 0.691 ± 0.0083 |
| GLAPYRPVITFS | 0.675 ± 0.002 |
| SESKMRKVEPKM | 0.7459 ± 0.00085 |
| HAGLLTSSHPGR | 0.705 ± 0.018 |
| VDGLQYFMYISG | 0.68 ± 0.073 |
| GLPRCMDWSIRR | 0.6764 ± 0.00099 |
| VLFLGVRCSCLG | 0.533 ± 0.014 |
| PFVFRPGPVPRV | 0.643 ± 0.1 |
| RPFHLLPPPPPL | 0.73 ± 0.019 |
| PLCPPPPVASFV | 0.64 ± 0.013 |
| LLAGEDGGVGEE | 0.653 ± 0.057 |
| LPPLPRPLLLPR | 0.661 ± 0.044 |
| PFAHSATFLSLG | 0.774 ± 0.052 |

| Sequence | protein stability index |
| --- | --- |
| TGYEVAGWVNWC | 0.711 ± 0.018 |
| KKYKKIGYRRIP | 0.773 ± 0.12 |
| HPFARSLRSQIT | 0.734 ± 0.043 |
| SPAGGPSGGEGV | 0.674 ± 0.062 |
| PWFGSSPRLAAC | 0.7346 ± 0.0073 |
| LGGVRRRDWQEG | 0.677 ± 0.016 |
| RIEEQMIKNEWE | 0.6932 ± 0.0047 |
| SGLGRETHGSYS | 0.66 ± 0.012 |
| SNRRSSRSLYYM | 0.698 ± 0.033 |
| SSSACNMPVVRL | 0.705 ± 0.05 |
| SVLLRPPLLFHP | 0.722 ± 0.019 |
| GGCVVKVRAQGP | 0.636 ± 0.01 |
| SGGCVLRLWGFV | 0.6853 ± 0.0019 |
| SVLEGGRWGFTR | 0.758 ± 0.038 |
| VGDGLGWGGQGG | 0.678 ± 0.03 |
| LLRLPCHLSQAS | 0.68 ± 0.035 |
| IPRPFRSLPFLP | 0.7307 ± 0.0047 |
| WKYRGVGGVGMG | 0.745 ± 0.097 |
| SRGSSGHLVNLV | 0.607 ± 0.049 |
| VCIAKCKYNKTS | 0.606 ± 0.015 |
| VLLYSGVVKFLQ | 0.586 ± 0.021 |
| GGRRYSRPGQKH | 0.661 ± 0.018 |
| GSGRNMHLRGSL | 0.65 ± 0.019 |
| RLGYSWGECPGG | 0.699 ± 0.012 |
| LGLFECAFLDRS | 0.736 ± 0.013 |

| Sequence | protein stability index |
| --- | --- |
| DALGRSTKGGHW | 0.689 ± 0.024 |
| RWSCLADQSANR | 0.7052 ± 0.0051 |
| KCKLNDTETMGK | 0.693 ± 0.026 |
| PAPPPSPPPRLA | 0.67 ± 0.075 |
| AYICLSGLGRCI | 0.672 ± 0.03 |
| GGGGRVRDALGM | 0.696 ± 0.048 |
| SRKCLPPLQLWS | 0.759 ± 0.067 |
| VGSRWNKELSQS | 0.725 ± 0.081 |
| RRLGVACCVVEG | 0.599 ± 0.0061 |
| SLPLIPCPSPPL | 0.751 ± 0.065 |
| VIAGSWVAGVSV | 0.655 ± 0.011 |
| FVSPVPPRRVGA | 0.704 ± 0.037 |
| PRPSPPPVSPRP | 0.74 ± 0.043 |
| SPPSPLSLPLPS | 0.707 ± 0.014 |
| LPRPLSPPLPSP | 0.702 ± 0.042 |
| GVWVMSGPVTRR | 0.716 ± 0.053 |
| TASLSPSHRFYS | 0.66863 ± 0.00061 |
| PRSPPSPPPPPS | 0.641 ± 0.1 |
| VVRLGLVSGCGG | 0.581 ± 0.013 |
| PRALSMGGPRYQ | 0.5929 ± 0.0021 |
| YKGQVKKNNPQC | 0.726 ± 0.033 |
| VGHGGRRGVGGW | 0.612 ± 0.057 |
| CCGHGVFSFFSL | 0.749 ± 0.023 |
| TTCLYYDLQIPM | 0.672 ± 0.015 |
| VVPSLLVLPFFC | 0.51 ± 0.01 |

| Sequence | protein stability index |
| --- | --- |
| ASIFPTLKLTYL | 0.713 ± 0.011 |
| FPFDMTSTEMSL | 0.639 ± 0.096 |
| VEERGCCGEAEG | 0.72671 ± 0.00023 |
| KKNLITRQNPLS | 0.69004 ± 0.0003 |
| QKSGELVKNVRI | 0.673 ± 0.035 |
| SPPPPLTSLVPP | 0.688 ± 0.075 |
| IGVGVGIDGLPW | 0.693 ± 0.093 |
| SCSVAIFLLSSP | 0.6848 ± 0.0025 |
| GGGSRLWGGGRV | 0.728 ± 0.028 |
| ARLPTYLAAPPP | 0.726 ± 0.089 |
| VVLGQGRGVGAM | 0.669 ± 0.012 |
| GVSAKVRRETVR | 0.725 ± 0.078 |
| CQLCTDPLIDLL | 0.667 ± 0.03 |
| PPSSPPPPDSDR | 0.6746 ± 0.0037 |
| LVRFTCRFFVGV | 0.589 ± 0.0089 |
| ALCEIWQSLLLA | 0.456 ± 0.13 |
| GTGDGRHRCRWN | 0.6655 ± 0.006 |
| NFHVRFVPDGGR | 0.67 ± 0.021 |
| EGHSPVQNVIEQ | 0.698 ± 0.013 |
| DSPTGLKFTQSL | 0.634 ± 0.1 |
| RGAGRTHCLRAP | 0.6613 ± 0.0055 |
| QYSFFLRSPEVF | 0.512 ± 0.038 |
| SLLTLVIPTLFS | 0.665 ± 0.0048 |
| LSSITLTYVSDF | 0.781 ± 0.12 |
| RLKFMTGLFLWS | 0.73 ± 0.019 |

| Sequence | protein stability index |
| --- | --- |
| PPPPPLPRSPSP | 0.807 ± 0.12 |
| SPRYLLFSLRSP | 0.714 ± 0.11 |
| IISAIAPFIRWD | 0.69 ± 0.03 |
| GTSDPRGSGPAG | 0.715 ± 0.015 |
| SNVRSRGAGISM | 0.729 ± 0.087 |
| EVRDLSQFMKRY | 0.727 ± 0.0092 |
| PFYLPPSTPPLL | 0.739 ± 0.0076 |
| GCVPGVGRDVVV | 0.719 ± 0.019 |
| PSPGPPATRPAL | 0.719 ± 0.0036 |
| GGGMCGRSGGRR | 0.706 ± 0.011 |
| TPLSSPHPSPPP | 0.595 ± 0.045 |
| PSPFSPPPPSSP | 0.736 ± 0.028 |
| RGCSGGVVDWIG | 0.679 ± 0.017 |
| RPAASTKWAVQP | 0.6923 ± 0.0021 |
| ELWRAGEVRGGK | 0.713 ± 0.035 |
| GKNGKNMDKDNK | 0.676 ± 0.019 |
| LDVGYVLGLERS | 0.681 ± 0.033 |
| LMFGDPIEANKE | 0.67 ± 0.01 |
| PPASPPAPRPPV | 0.759 ± 0.018 |
| RHPTHPVSSLNP | 0.777 ± 0.05 |
| SPWLSSRFRVPR | 0.686 ± 0.021 |
